The target in one test is T1, human SPNS2 L196A mutant (human, UniProt Q8IVW8 1-549).
T1 sequence: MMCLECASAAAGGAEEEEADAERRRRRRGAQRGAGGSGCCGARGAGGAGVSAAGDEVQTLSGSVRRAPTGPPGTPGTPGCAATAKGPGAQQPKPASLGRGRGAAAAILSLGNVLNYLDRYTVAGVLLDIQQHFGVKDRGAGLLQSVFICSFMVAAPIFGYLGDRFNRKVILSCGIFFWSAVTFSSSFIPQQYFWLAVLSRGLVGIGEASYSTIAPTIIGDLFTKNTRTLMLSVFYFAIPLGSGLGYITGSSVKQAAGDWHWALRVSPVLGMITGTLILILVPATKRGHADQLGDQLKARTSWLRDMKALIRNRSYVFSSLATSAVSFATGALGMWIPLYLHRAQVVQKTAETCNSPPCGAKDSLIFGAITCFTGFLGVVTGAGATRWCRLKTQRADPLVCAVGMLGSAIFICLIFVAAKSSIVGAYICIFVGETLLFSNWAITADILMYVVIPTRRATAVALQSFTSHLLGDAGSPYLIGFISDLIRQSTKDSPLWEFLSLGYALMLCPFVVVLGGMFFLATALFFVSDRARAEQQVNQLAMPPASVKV
Put plainly: flow cytometry. A general note: A flow cytometer gives signals particle by particle.

In another test the target is T2, human SPNS2 I129A mutant (human, UniProt Q8IVW8 1-549).
T2 sequence: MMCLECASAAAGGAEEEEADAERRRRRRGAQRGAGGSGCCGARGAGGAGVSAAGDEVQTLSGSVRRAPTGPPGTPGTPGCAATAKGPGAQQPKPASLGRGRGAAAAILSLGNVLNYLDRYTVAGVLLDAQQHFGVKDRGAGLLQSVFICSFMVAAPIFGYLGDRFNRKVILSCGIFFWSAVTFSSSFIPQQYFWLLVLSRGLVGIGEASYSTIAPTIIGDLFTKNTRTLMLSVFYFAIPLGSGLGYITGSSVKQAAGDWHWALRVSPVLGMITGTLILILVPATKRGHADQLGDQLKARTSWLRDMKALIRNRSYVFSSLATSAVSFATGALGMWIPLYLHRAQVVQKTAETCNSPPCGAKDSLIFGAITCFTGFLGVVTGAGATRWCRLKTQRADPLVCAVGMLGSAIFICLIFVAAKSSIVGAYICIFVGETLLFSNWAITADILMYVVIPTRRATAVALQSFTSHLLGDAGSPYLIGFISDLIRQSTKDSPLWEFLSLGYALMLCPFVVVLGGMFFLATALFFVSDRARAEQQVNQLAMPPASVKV
Put plainly: flow cytometry.

B1: 65-0810G (antibody, IgG2b, V domains shown)
VH: EVHLVESGGGLVQPGRSMKLSCTASGFTFNNYYMAWVRQAPTKGLEWVASISTGGGYTYYRDSVKGRFTISRDNTGNTLYLQMDSLRSEDTATYYCARCWELPYWGQGVMVTVSS
VL: QFVLTQPNSVSTNLGSTVKLSCRRSSGNIGNNYVNWYRQHEGRSPTTMIYRDDTRPDGVPNRFSGSIDRSSNSALLTINNVRPEDEAYYFCQSYSGSIYIFGGGTKLTVL
For B1, the “binding ratio vs native type” value with human SPNS2 L196A mutant and with human SPNS2 I129A mutant was less than 0.5 ratio each time.

For the origin of these results see patent US20210147523A1 (TEIJIN PHARMA, published 2021).
